Laboratory results from patent US20250326862A1, “Antibody or Fragment Thereof Binding Specifically to Mertk, and Anti-Tumor Agent” (Chiome Bioscience Inc., priority 2021, published 2025).
Entries after “also recorded” stand apart in the source; their conditions may differ.

How the values were obtained:
[1] = molecular target: T1, binding of MerTK with Gas6 (Homo sapiens, UniProt Q12866); assay: Test 6: ligand binding inhibition ELISA, MerTK with Gas6; conditions: human MerTK 5 μg/ml immobilized; biotinylated Gas6 10 nM; FIGS. 13 and 15
T1 construct: purchased R&D Systems
T1 sequence (Q12866 26-499 limits assumed): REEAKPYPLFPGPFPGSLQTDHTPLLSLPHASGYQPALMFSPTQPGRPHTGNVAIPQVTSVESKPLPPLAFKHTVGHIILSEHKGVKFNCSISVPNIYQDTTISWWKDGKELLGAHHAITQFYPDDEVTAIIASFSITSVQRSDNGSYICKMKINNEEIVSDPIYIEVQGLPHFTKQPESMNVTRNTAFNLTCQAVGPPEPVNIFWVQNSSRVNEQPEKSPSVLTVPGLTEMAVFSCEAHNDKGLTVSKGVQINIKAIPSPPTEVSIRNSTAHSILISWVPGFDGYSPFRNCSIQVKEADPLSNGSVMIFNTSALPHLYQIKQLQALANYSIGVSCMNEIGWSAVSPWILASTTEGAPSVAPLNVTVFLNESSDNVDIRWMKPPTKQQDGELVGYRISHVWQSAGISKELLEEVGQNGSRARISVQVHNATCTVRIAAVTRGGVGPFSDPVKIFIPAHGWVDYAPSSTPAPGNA
Experimental: (§1) “20A77” and “24A1” were evaluated for the ability to inhibit binding of MerTK with various ligands. The MerTK ligands used were human Gas6 (R&D Systems) and human TULP1 (abcam plc.) which were respectively biotinylated using “Biotin Labeling Kit-NH” (Dojindo Laboratories Co., Ltd.). […] TULP1 is a ligand correlated with ocular toxicity, and an antibody having an activity to inhibit binding of MerTK with TULP1 may have ocular toxicity. Thus, an antibody having high inhibitory activity of binding to Gas6 and low inhibitory activity of binding to TULP1 may be an efficacious anti-tumor agent having low ocular toxicity.
(§2) The ligand binding inhibition test was carried out as indicated below. First, human MerTK (R&D Systems) was added to an ELISA plate (Nunc) at a concentration of 5 μg/ml and immobilized overnight at room temperature. After removing the immobilization solution, 1% BSA/PBS was added for blocking reaction and left to stand at room temperature for 1 hour. After the blocking, the plate was washed with 0.05% Tween 20/PBS and an antibody solution was added for primary reaction at room temperature for 1 hour. […] After washing, a chromogenic substrate solution of TMB (Dako) was added for chromogenic reaction for 20 minutes, 1 N sulfuric acid was added to terminate the reaction and the absorbance was measured at 450 nm.

[2] = molecular target: T2, binding of MerTK with TULP1 (Homo sapiens, UniProt Q12866); assay: Test 6: ligand binding inhibition ELISA, MerTK with TULP1; conditions: human MerTK 5 μg/ml immobilized; biotinylated TULP1 40 nM; FIGS. 14 and 16
T2 construct: purchased R&D Systems
T2 sequence (Q12866 26-499 limits assumed): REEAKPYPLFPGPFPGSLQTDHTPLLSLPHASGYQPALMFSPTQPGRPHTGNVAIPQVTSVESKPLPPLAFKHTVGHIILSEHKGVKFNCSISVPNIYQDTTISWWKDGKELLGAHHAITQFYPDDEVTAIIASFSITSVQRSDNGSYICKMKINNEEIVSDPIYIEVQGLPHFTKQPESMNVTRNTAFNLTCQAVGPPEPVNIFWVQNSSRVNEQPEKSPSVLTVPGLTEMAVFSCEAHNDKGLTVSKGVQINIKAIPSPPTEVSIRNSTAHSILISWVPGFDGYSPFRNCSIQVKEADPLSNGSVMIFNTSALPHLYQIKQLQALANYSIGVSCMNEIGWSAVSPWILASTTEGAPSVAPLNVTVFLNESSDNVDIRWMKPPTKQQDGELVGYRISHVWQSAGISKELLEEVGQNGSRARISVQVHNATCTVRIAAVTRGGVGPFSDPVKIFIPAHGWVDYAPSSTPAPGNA
Experimental: as §1, §2

[3] = molecular target: T3, human MerTK on cells (EL4 cells stably expressing human MerTK); human melanoma cell line G361 intrinsically … (human, UniProt Q12866 21-999); assay: inferred from inhibition of Gas6-induced MerTK phosphorylation on hMerTK-EL4 cells
T3 construct: whole, on cells; also called hMerTK-EL4
T3 sequence (looked up): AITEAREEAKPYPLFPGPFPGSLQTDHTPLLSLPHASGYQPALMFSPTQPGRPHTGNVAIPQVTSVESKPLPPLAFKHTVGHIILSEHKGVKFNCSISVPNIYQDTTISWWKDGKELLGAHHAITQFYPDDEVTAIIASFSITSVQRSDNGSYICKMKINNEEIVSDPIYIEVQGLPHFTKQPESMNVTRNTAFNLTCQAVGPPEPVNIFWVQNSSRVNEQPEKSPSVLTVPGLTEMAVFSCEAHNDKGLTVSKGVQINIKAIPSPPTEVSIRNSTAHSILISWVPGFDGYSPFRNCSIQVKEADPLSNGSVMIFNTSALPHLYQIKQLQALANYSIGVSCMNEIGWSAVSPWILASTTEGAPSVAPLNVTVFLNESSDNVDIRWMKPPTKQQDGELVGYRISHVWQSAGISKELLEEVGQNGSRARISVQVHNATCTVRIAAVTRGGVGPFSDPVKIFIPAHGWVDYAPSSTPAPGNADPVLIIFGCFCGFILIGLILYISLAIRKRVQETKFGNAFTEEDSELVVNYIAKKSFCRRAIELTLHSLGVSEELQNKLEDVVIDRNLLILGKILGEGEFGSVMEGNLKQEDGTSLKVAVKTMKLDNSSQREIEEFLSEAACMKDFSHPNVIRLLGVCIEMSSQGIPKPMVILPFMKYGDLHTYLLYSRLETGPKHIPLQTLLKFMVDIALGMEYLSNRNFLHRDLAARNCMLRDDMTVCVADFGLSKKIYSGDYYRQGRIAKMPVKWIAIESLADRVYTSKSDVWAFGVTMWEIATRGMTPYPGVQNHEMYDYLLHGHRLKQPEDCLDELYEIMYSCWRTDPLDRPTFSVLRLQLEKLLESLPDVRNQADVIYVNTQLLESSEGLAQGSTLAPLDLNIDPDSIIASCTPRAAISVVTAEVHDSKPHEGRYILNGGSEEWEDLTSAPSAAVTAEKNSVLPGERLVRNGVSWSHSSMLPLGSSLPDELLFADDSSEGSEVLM
Experimental: The cells (hMerTK-EL4) stably expressing human MerTK were cultured in a “DMEM high glucose medium” (Thermo Fisher Scientific Inc.) containing 10% FBS. After the cultivation, the cells were washed in PBS, suspended in a serum-free medium, plated in a 96-well plate at 1×10⁶ cells/well and incubated at 37° C. for 3 hours. After the incubation, the respective clones were added, the hMerTK-EL4 was allowed to react for 1 hour, stimulated with 200 nM human Gas6 (R&D Systems) for 10 minutes and centrifuged and collected. The collected hMerTK-EL4 was lysed in a cell lysis solution, and the level of the phosphorylated MerTK protein in the lysate was determined using “Human Phospho-Mer DuoSet IC ELISA” (R&D Systems). The cell lysis solution used contained 1% “IGEPAL CA-630” (SIGMA) and 1×concentration of “Halt Protease and Phosphatase Inhibitor Single-Use Inhibitor Cocktail” (Thermo Fisher Scientific Inc.) added to MilliQ water.
Among these 14 clones, “20A77” and “24A1” were selected as clones showing particularly high inhibitory activity and subjected to the following tests.

human MerTK = molecular target: T4, human MerTK (Homo sapiens, UniProt Q12866); assay: MerTK phosphorylation inhibition test in hMerTK-EL4 cells stimulated with human Gas6; assay type: cell-based; parameters: expressed in transfected cells; host or cells: mouse lymphoma cell line EL4 (hMerTK-EL4); conditions: hMerTK-EL4, antibody 1 hour, then 200 nM human Gas6 for 10 minutes; phospho-Mer ELISA; FIG. 1
T4 sequence (Q12866 21-999): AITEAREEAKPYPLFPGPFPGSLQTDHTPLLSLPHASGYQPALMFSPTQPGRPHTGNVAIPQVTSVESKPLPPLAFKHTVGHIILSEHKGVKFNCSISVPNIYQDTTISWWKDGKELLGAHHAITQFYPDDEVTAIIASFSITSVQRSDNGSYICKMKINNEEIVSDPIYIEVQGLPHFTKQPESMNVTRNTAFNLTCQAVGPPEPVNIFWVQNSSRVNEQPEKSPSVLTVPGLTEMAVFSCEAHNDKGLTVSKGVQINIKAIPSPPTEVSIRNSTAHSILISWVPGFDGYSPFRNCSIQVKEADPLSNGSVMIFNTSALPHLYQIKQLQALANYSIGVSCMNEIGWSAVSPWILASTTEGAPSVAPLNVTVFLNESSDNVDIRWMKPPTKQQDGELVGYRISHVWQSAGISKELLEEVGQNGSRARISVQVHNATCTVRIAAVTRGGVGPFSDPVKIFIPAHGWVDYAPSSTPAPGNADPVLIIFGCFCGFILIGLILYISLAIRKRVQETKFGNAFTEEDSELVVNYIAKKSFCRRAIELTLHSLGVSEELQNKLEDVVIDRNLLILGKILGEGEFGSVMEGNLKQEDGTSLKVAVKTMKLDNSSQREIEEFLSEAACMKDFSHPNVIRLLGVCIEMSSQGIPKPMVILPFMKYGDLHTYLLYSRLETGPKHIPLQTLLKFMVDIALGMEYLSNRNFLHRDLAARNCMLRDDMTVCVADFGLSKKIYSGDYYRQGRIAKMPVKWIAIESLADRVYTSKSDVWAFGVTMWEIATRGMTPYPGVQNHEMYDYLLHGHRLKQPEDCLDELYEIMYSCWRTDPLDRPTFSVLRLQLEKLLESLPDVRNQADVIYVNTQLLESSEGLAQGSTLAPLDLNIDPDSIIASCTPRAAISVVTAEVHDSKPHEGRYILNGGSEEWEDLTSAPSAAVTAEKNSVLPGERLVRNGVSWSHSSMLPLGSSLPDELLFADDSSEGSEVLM
Experimental: On the basis of the procedures indicated below, the clones were evaluated for MerTK phosphorylation inhibitory activity. Higher activity means higher binding ability to MerTK.
The cells (hMerTK-EL4) stably expressing human MerTK were cultured in a “DMEM high glucose medium” (Thermo Fisher Scientific Inc.) containing 10% FBS. After the cultivation, the cells were washed in PBS, suspended in a serum-free medium, plated in a 96-well plate at 1×10^6 cells/well and incubated at 37° C. for 3 hours. After the incubation, the respective clones were added, the hMerTK-EL4 was allowed to react for 1 hour, stimulated with 200 nM human Gas6 (R&D Systems) for 10 minutes and centrifuged and collected. The collected hMerTK-EL4 was lysed in a cell lysis solution, and the level of the phosphorylated MerTK protein in the lysate was determined using “Human Phospho-Mer DuoSet IC ELISA” (R&D Systems). The cell lysis solution used contained 1% “IGEPAL CA-630” (SIGMA) and 1×concentration of “Halt Protease and Phosphatase Inhibitor Single-Use Inhibitor Cocktail” (Thermo Fisher Scientific Inc.) added to MilliQ water.

B1: 20A77 (antibody, V domains shown)
VH: QVQLQQPGTELVKPGASVKLSCRASGNTFTSYWMHWVKQRPGQGLEWIGNINPSNGGTNYNEKFKSKATLTVDKSSSTAYMQLSSLTSEDSAVYYCARLNYYGFDGFAFWGQGTLVTVSA
VL: DIKMTQSPSSMYASLGERVTITCKASQDINSYLSWFQQKPGKSPKTLIYRANRLVDGVPSRFSGSGSGQDYSLTISSLEYEDMGIYYCLQYDEFPFTFGSGTKLEIK
notes: Mouse monoclonal antibody from a hybridoma clone (MerTK knockout mice); In Test 2 (1) the hybridoma clone was added
inhibition of binding of Gas6 with MerTK [1]: inhibited binding of Gas6 with MerTK; also recorded: strongly inhibited binding of Gas6 with MerTK
inhibition of binding of TULP1 with MerTK [2]: did not inhibit binding of TULP1 with MerTK
binding result [3]: binds
MerTK phosphorylation inhibitory activity (human MerTK): inhibited binding of Gas6 with MerTK and MerTK phosphorylation in a concentration dependent manner
